These results are taken from publication doi:10.1101/2022.03.30.486445 (bioRxiv, 2022).

One assay has as its target T1, His6-EB1-CyPet (human, UniProt Q15691 1-268).
T1 sequence: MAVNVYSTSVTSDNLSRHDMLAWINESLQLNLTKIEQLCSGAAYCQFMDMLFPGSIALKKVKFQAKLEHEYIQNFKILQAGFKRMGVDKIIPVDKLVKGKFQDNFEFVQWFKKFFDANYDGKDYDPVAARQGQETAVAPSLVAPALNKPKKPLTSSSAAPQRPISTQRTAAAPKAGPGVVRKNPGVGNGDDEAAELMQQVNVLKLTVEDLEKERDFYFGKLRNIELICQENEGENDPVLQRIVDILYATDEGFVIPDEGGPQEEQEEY
Nature of the assay: FRET or BRET. Background: Bioluminescence resonance energy transfer reports proximity on the nanometre scale.

Assay [1] deals with doubly stabilized microtubules (GMPCPP and paclitaxel) (UniProt Q6B856 1-445). In words: co-sedimentation.
Assay [2] deals with GMPCPP-stabilized HyLite 647/biotin-labeled microtubules (bovine) (UniProt Q6B856). In words: single-molecule TIRF microscopy.

B1: YPet-Kif18B(605-828)-His6 (domain or fragment)
chain: TRTMARRLSGPLHTLGIPPGPNCTPAQGSRWPMEKKRRRPSALEADSPMAPKRGTKRQRQSFLPCLRRGSLPDTQPSQGPSTPKGERASSPCHSPRVCPATVIKSRVPLGPSAMQNCSTPLALPTRDLNATFDLSEEPPSKPSFHECIGWDKIPQELSRLDQPFIPRAPVPLFTMKGPKPTSSLPGTSACKKKRVASSSVSHGRSRIARLPSSTLKRPAGPLVL
B1: the binding result with His6-EB1-CyPet is recorded as “binds”. Also, the “fold increase in the Kd for MTs with importin α/β against without” value in assay [1] turned out to be 9 fold.

B2: YPet-Kif18B(605-828)-NLS1/2 (domain or fragment)
chain: TRTMARRLSGPLHTLGIPPGPNCTPAQGSRWPMEAAARRPSALEADSPMAPAAGTKRQRQSFLPCLRRGSLPDTQPSQGPSTPKGERASSPCHSPRVCPATVIKSRVPLGPSAMQNCSTPLALPTRDLNATFDLSEEPPSKPSFHECIGWDKIPQELSRLDQPFIPRAPVPLFTMKGPKPTSSLPGTSACAAAAVASSSVSHGRSRIARLPSSTLKRPAGPLVL
As for B2, the binding result in the assay with His6-EB1-CyPet is “binds”. Further, the “fold increase in the Kd for MT binding relative to YPet-Kif18B(605-828)” value in assay [1] is around 2 fold.

B3: YPet-Kif18B(708-828)-His6 (domain or fragment)
chain: KSRVPLGPSAMQNCSTPLALPTRDLNATFDLSEEPPSKPSFHECIGWDKIPQELSRLDQPFIPRAPVPLFTMKGPKPTSSLPGTSACKKKRVASSSVSHGRSRIARLPSSTLKRPAGPLVL
As for B3, the binding result with His6-EB1-CyPet is “binds”.

B4: YPet-Kif18B(708-828) E2 (domain or fragment)
chain: KSRVPLGPSAMQNCSTPLALPTRDLNATFDLSEEPPSKPSFHECIGWDKIPQELSRLDQPFIPRAPVPLFTMKGPKPTSSNNGTSACKKKRVASSSVSHGRSRIARLPSSTLKRPAGPLVL
B4: the binding result in the assay with His6-EB1-CyPet was “binds”.

B5: YPet-Kif18B(605-707)-His6 (domain or fragment)
chain: TRTMARRLSGPLHTLGIPPGPNCTPAQGSRWPMEKKRRRPSALEADSPMAPKRGTKRQRQSFLPCLRRGSLPDTQPSQGPSTPKGERASSPCHSPRVCPATVI
For the molecule B5, the binding result with His6-EB1-CyPet is listed as “binds”.

B6: GFP-Kif18B (full-length human Kif18B N-terminally tagged with EGFP) (natural protein)
chain: MAVEDSTLQVVVRVRPPTPRELDSQRRPVVQVVDERVLVFNPEEPDGGFPGLKWGGTHDGPKKKGKDLTFVFDRVFGEAATQQDVFQHTTHSVLDSFLQGYNCSVFAYGATGAGKTHTMLGREGDPGIMYLTTVELYRRLEARQQEKHFEVLISYQEVYNEQIHDLLEPKGPLAIREDPDKGVVVQGLSFHQPASAEQLLEILTRGNRNRTQHPTDANATSSRSHAIFQIFVKQQDRVPGLTQAVQVAKMSLIDLAGSERASSTHAKGERLREGANINRSLLALINVLNALADAKGRKTHVPYRDSKLTRLLKDSLGGNCRTVMIAAISPSSLTYEDTYNTLKYADRAKEIRLSLKSNVTSLDCHISQYATICQQLQAEVAALRKKLQVYEGGGQPPPQDLPGSPKSGPPPEHLPSSPLPPHPPSQPCTPELPAGPRALQEESLGMEAQVERAMEGNSSDQEQSPEDEDEGPAEEVPTQMPEQNPTHALPESPRLTLQPKPVVGHFSARELDGDRSKQLALKVLCVAQRQYSLLQAANLLTPDMITEFETLQQLVQEEKIEPGAEALRTSGLARGAPLAQELCSESIPVPSPLCPEPPGYTGPVTRTMARRLSGPLHTLGIPPGPNCTPAQGSRWPMEKKRRRPSALEADSPMAPKRGTKRQRQSFLPCLRRGSLPDTQPSQGPSTPKGERASSPCHSPRVCPATVIKSRVPLGPSAMQNCSTPLALPTRDLNATFDLSEEPPSKPSFHECIGWDKIPQELSRLDQPFIPRAPVPLFTMKGPKPTSSLPGTSACKKKRVASSSVSHGRSRIARLPSSTLKRPAGPLVLPGDWH
In the case of B6, in assay [2], the dwell time at MT plus ends came out at 5.56 s; the dwell time at MT plus ends, with importin α/β was 5.39 s; the dwell time on the MT lattice worked out at 1.77 s; the dwell time on the MT lattice, with importin α/β is 2.3 s. Moreover, in assay [2], the on-rate on MTs (landing events per MT length and time) was found to be 0.26 µm·s^-1; the on-rate on MTs (landing events per MT length and time), with importin α/β stood at 0.35 µm·s^-1.
